Data: article PMC7785020, “A unique hormonal recognition feature of the human glucagon-like peptide-2 receptor” (Cell Research, 2020)

Legend:
GLP-2R = settings: cited from earlier work
Description: Consistently, the truncated metabolite GLP-2(3–33) acts as a part ...

[1] = biological target: Human GLP-2R WT (1–553) (human) (UniProt O95838)
[2] = biological target: T1, GLP-2R Y252(ECL1)A (human) (UniProt O95838)
T1 sequence: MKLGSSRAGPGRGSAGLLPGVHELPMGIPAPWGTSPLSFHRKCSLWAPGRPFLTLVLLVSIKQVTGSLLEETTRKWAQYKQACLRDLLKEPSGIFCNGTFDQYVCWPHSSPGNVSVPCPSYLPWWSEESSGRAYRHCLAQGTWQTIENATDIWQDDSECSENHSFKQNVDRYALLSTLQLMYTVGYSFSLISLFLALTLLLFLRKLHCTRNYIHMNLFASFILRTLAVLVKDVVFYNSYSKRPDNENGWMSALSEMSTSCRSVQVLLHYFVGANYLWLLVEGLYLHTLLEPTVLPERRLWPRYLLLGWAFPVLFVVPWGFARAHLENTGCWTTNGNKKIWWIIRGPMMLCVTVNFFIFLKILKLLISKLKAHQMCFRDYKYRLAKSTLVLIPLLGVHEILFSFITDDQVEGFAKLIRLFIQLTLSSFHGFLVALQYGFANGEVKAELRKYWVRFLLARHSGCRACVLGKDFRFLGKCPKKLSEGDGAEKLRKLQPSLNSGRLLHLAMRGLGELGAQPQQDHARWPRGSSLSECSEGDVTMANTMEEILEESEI

[3] = biological target: T2, GLP-2R R242(ECL1)A (human) (UniProt O95838)
T2 sequence: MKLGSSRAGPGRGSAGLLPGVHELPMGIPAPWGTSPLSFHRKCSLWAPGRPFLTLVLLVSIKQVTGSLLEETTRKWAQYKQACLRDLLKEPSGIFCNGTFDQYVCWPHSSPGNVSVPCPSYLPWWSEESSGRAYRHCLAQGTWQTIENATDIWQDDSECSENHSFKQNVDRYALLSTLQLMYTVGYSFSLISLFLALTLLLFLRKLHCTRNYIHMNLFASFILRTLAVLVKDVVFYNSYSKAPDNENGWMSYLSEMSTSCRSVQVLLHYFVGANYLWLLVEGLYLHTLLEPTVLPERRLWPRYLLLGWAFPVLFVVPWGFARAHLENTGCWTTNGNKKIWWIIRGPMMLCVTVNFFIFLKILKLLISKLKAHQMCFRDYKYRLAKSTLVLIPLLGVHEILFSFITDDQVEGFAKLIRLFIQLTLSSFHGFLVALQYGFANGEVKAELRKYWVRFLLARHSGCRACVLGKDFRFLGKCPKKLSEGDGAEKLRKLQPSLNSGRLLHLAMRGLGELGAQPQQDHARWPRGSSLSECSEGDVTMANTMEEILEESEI

[4] = biological target: GLP-2R W249^ECL1A (human) (UniProt O95838)
[5] = biological target: GLP-2R R242(ECL1)E (human) (UniProt O95838)
[6] = biological target: GLP-2R (1-553) (WT) (human) (UniProt O95838)
[7] = biological target: T1, GLP-2R Y252(ECL1)A (human); remark: listed apart in the source
[8] = biological target: T2, GLP-2R R242(ECL1)A (human); remark: listed apart in the source
[9] = biological target: GLP-2R W249^ECL1A (human) (UniProt O95838); remark: listed apart in the source
[10] = biological target: GLP-2R R242(ECL1)E (human) (UniProt O95838); remark: listed apart in the source
[11] = biological target: GLP-2R (1-553) (WT) (human) (UniProt O95838); remark: listed apart in the source
GLP-2R W249^ECL1A = biological target: T3, GLP-2R W249^ECL1A (Homo sapiens, UniProt O95838, W249A); test: cAMP accumulation, W249^ECL1A; type: cell-based; set-up: WT (1–553); expressed in transfected cells; HEK 293T (cAMP)
T3 sequence (O95838 1-553 W249A): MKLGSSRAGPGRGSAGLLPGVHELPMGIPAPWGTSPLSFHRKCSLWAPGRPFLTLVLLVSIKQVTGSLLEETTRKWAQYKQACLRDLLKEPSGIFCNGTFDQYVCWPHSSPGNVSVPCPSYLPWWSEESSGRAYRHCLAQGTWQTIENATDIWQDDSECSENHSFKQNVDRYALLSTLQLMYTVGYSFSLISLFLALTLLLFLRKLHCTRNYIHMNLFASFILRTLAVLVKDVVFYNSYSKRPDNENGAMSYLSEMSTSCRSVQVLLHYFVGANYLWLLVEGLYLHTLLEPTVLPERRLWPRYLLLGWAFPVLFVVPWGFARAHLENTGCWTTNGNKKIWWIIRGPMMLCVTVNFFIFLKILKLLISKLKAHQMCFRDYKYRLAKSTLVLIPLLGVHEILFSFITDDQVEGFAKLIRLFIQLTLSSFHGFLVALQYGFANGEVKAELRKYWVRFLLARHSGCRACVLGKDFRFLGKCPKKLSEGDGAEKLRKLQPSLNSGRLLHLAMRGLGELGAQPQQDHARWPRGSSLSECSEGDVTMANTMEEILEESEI
Method: (§1) They were seeded onto 6-well cell culture plates and transiently transfected with different GLP-2R constructs using Lipofectamine 2000 transfection reagent (Invitrogen, Carlsbad, CA, USA). After 24 h, the transfected cells were seeded onto 384-well microtiter plates (3000 cells per well) in HBSS supplemented with 5 mM HEPES, 0.1% (w/v) bovine serum albumin (BSA) and 0.5 mM 3-isobutyl-1- methylxanthine, and stimulated with increasing concentrations of GLP-2 for 30 min at RT. Eu and Ulight were diluted by cAMP detection buffer and added to the plates separately to terminate the reaction. Plates were incubated at RT for 60 min before measuring the fluorescence intensity at 620 nm and […] by an EnVision multilabel plate reader (PerkinElmer, Boston, USA).

GLP-2R Y252^ECL1A = biological target: T4, GLP-2R Y252^ECL1A (Homo sapiens, UniProt O95838, Y252A); test: cAMP accumulation, Y252^ECL1A; type: cell-based; set-up: WT (1–553); expressed in transfected cells; HEK 293T (cAMP)
T4 sequence (O95838 1-553 Y252A): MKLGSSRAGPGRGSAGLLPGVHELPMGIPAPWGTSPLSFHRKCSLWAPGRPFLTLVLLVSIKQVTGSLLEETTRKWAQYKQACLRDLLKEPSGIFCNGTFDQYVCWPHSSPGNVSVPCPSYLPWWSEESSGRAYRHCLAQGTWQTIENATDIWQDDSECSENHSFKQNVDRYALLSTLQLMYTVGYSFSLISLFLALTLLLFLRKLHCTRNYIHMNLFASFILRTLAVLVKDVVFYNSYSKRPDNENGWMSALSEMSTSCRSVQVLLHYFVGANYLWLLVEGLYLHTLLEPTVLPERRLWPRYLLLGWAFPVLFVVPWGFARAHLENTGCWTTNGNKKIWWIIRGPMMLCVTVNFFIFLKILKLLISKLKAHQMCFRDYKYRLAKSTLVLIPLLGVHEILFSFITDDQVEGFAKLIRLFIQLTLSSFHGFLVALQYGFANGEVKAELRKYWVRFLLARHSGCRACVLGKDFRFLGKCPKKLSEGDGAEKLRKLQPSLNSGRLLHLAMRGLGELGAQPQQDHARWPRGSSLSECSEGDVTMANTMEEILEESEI
Method: as §1

GLP-2R R242^ECL1E = biological target: T5, GLP-2R R242^ECL1E (Homo sapiens, UniProt O95838, R242E); test: cAMP accumulation, R242^ECL1E; type: cell-based; set-up: WT (1–553); expressed in transfected cells; HEK 293T (cAMP)
T5 sequence (O95838 1-553 R242E): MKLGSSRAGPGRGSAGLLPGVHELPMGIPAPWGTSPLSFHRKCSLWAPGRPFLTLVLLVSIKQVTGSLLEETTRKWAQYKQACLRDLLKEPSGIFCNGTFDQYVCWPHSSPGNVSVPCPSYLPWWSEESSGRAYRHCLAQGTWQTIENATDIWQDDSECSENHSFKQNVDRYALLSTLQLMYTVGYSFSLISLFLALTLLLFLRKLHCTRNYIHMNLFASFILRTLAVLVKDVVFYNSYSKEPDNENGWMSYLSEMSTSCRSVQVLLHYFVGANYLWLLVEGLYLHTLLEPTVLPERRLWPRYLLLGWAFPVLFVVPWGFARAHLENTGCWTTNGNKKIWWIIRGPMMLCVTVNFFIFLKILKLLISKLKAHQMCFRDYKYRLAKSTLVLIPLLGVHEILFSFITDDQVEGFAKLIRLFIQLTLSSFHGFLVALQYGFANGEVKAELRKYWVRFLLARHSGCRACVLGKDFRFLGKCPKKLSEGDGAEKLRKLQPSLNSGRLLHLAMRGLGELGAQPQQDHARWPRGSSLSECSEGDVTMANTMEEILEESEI
Method: as §1

GLP-1R (WT) = GLP-1R (WT) (Homo sapiens, UniProt P43220)
GLP-1R (WT), sequence (P43220 24-463): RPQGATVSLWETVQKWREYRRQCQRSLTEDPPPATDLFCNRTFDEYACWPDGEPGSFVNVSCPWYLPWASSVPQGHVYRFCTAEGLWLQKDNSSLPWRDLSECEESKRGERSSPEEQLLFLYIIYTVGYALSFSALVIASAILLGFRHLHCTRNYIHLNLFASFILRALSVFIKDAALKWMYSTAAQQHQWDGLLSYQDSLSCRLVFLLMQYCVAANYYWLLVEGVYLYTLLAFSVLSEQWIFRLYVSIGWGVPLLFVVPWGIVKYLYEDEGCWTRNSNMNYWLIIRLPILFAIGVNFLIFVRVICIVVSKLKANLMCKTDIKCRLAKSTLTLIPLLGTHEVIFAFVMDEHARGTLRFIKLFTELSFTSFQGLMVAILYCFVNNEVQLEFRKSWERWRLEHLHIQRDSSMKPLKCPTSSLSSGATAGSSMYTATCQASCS

For “GLP-2(3–33): truncated metabolite of GLP-2, partial agonist (DGSFSDEMNTILDNLAARDFINWLIQTKITD; Glucagon-like peptide 2; UniProt P01275 148-178, looked up, fragment)”, the “type of agonism (in words)” value (GLP-2R; GLP-2R) is listed as “partial agonist”, the “reduction in binding affinity (in words)” value (GLP-2R; vs GLP-2) is listed as “great reduction in binding affinity” and the “reduction in potency (in words)” value (GLP-2R; vs GLP-2) is listed as “great reduction in binding affinity and potency”.

With chimeric GLP-2/GLP-1(20–33) (peptide) the peptide-induced cAMP accumulation for GLP-2R: fold reduction of potency [1] was 17 fold.

In the case of Human GLP-2(1-33) (peptide), the Table S3: pEC50 of GLP-2-induced cAMP accumulation, HEK 293T cells transfected with the receptor mutant [2] is reported as 9.8 -log M, the Table S3: pEC50 of GLP-2-induced cAMP accumulation, HEK 293T cells transfected with the receptor mutant [3] is reported as 9.8 -log M and the Table S3: pEC50 of GLP-2-induced cAMP accumulation, HEK 293T cells transfected with the receptor mutant [4] is reported as 7.2 -log M. The Table S3: pEC50 of GLP-2-induced cAMP accumulation, HEK 293T cells transfected with the receptor mutant [5] was 9.1 -log M, the Table S3: pEC50 of GLP-2-induced cAMP accumulation, HEK 293T cells transfected with the receptor (wild-type reference of the table) [6] was 10.4 -log M and the Table S5: pEC50 of GLP-2(1-33)-induced cAMP accumulation, cells transfected with the receptor mutant [7] was 10.1 -log M. The Table S5: pEC50 of GLP-2(1-33)-induced cAMP accumulation, cells transfected with the receptor mutant [8] was 9.9 -log M, the Table S5: pEC50 of GLP-2(1-33)-induced cAMP accumulation, cells transfected with the receptor mutant [9] was 7.4 -log M and the Table S5: pEC50 of GLP-2(1-33)-induced cAMP accumulation, cells transfected with the receptor mutant [10] was 9.6 -log M. The Table S5: pEC50 of GLP-2(1-33)-induced cAMP accumulation, cells transfected with the receptor (wild-type reference of the table) [11] was 10.8 -log M.

Work on chimeric GLP-2/GLP-1(1–6) (peptide) yielded a peptide-induced cAMP accumulation for GLP-2R: fold decrease against native GLP-2 [1] of 12 fold.

In the case of `CC[C@H](C)[C@H](NC(=O)[C@H](Cc1ccccc1)NC(=O)[C@H](CCC(=O)O)NC(=O)[C@H](CCCCN)NC(=O)[C@H](C)NC(=O)[C@H](C)NC(=O)[C@H](CCC(N)=O)NC(=O)CNC(=O)[C@H](CCC(=O)O)NC(=O)[C@H](CC(C)C)NC(=O)[C@H](Cc1ccc(O)cc1)NC(=O)[C@H](CO)NC(=O)[C@H](CO)NC(=O)[C@@H](NC(=O)[C@H](CC(=O)O)NC(=O)[C@H](CO)NC(=O)[C@@H](NC(=O)[C@H](Cc1ccccc1)NC(=O)[C@@H](NC(=O)CNC(=O)[C@H](CCC(=O)O)NC(=O)[C@H](C)NC(=O)[C@@H](N)Cc1c[nH]cn1)[C@@H](C)O)[C@@H](C)O)C(C)C)C(=O)N[C@@H](C)C(=O)N[C@@H](Cc1c[nH]c2ccccc12)C(=O)N[C@@H](CC(C)C)C(=O)N[C@H](C(=O)N[C@@H](CCCCN)C(=O)NCC(=O)N[C@@H](CCCNC(=N)N)C(=O)NCC(=O)O)C(C)C` [GLP-1(1-31)], the EC50 (GLP-2R W249^ECL1A) is reported as 2.51 nM, the Emax (GLP-2R W249^ECL1A; HEK-293T, Table S5, W249A, HEK 293T, 30 min, RT, mean ± SEM, n ≥ 3 in duplicate, read-out: cAMP Emax (% WT)) is reported as -2.4 ± 0.7% and the EC50 (GLP-2R Y252^ECL1A) is reported as 0.631 nM. For the same molecule, the Emax (GLP-2R Y252^ECL1A; HEK-293T, Table S5, Y252A, HEK 293T, 30 min, RT, mean ± SEM, n ≥ 3 in duplicate, read-out: cAMP Emax (% WT)) was -0.7 ± 1.1%, the EC50 (GLP-2R R242^ECL1E) was 2.51 nM and the Emax (GLP-2R R242^ECL1E; HEK-293T, Table S5, R242E, HEK 293T, 30 min, RT, mean ± SEM, n ≥ 3 in duplicate, read-out: cAMP Emax (% WT)) was -2.2 ± 0.9%.

For HADGSFTSDVSSYLEGQAARDFINWLIQTKITD [chimeric GLP-2/GLP-1(7-19)], the Table S5: pEC50 of cAMP accumulation induced by the chimeric peptide (7-19), cells transfected with GLP-1R (WT) (GLP-1R (WT)) was 10.9 -log M and the Table S5: pEC50 of cAMP accumulation induced by the chimeric peptide (7-19), cells transfected with GLP-2R (WT) [11] was 8.5 -log M.
